# Experiment: soluble on expression in E. coli; label from the status in PepcDB or PDB records
row,Sequence,soluble on expression in E. coli
1,MMKNDEQDDVDVVNVPTNIDFQCNLCEYVGKSDRSLSAHKRHRHPRPEGQEDDKKPRGRPKKYEDSPVPLQRVTTKQLLGGRKRPKTIVECVDDSAIRTDKEASRLHGLGIIDEETSLGDYVRRGANYQLMGGSDMNLDGNSMIVGQEVVIDHEEDEENDDSPMLDSIPAGKNLERRKIRKSGRACASIRLSAKNRQISRSSHMRKVHPNEHAERKRNAPGYNSNGTYNCHFPLCQWRGWSRSTRSTHLRKAHPEWRPDDNRVMTVLSCFYCKSSFHTYAQLADHTITHGGLALMISQSFDNKHHFSAWLQQMERVYSVTFERSEFGSDPELQDLHNYVLHCDCVGGRGEQLATDSRAYIDQKHTNFKFSGAYIYQKHNFLKRRHPQLLTRNKNDCCVHLEVREDSEYGPIHVKGTLEHTGHRFGTPLLRMLFEGFTMDHYTTPRSVILMEPLHTNQFQSLREFIEAPSTSTYQNPYFSVDFGDSPEQFSFGYMSDEMQKLWSKYAPGRTITIDSSPLEFGEVDLFQYSVIVTDENYIPKCAMIYVTTDNSRAPHTILRQMKAVEPRPPTIFMVDPSQLWVELIQDLWPTDLDNPESEVTILISEWTLMDYWAAKTEELVKNEFDVFCIVTALRRMLRVEDAHQLYYTIVELFEAFFECGYDGLAEFFDAQLSDMEYFKRWGPLHRTTLTSHAHPTLGASFRILRDWYLNPANMDHDAPRVDQWFSHICQRIEDFNAITNTQTYTLRPLDPPHKFFYTTVEDEEGEEAEHENPFKNPQILMYDDDGDEVVVEEEIIGHEIDGASELQGSELPDEEVIYETYEDYPEYGGHYDLEEEHKMHHNMRLEEEELQQHLHEQQKPEHLSHQTEELGELQDHHHHHHHHLDEDPEATAEGPSEIVEHDDEEEQEDLVDVEMVDDQHEQHEIPAKIPPHRQRLYQKLDPMPVISHELPRSPSRRIRIPTRKIQELDQESVLPPPPRRETTRSVVRSRKRRDRFAELRDCPPEVMRAIAAHAIAYDGRKKEQRPIVYVPRQAKMAMSSTPTAPTPPEDYDGPPGHQMTTILQHQRQAKQEEEEEQWSGEYDDELHEQEHDPATSSPPPSLLPHTGPSEIVHHEEEVHMMLPEEEADLMDDDDQQPCTSASMYR,soluble
2,MMKPIAVSQLSDNFFETISKEWMLVTAGNKNAFNTMTANWGGIGFLWNKPVVYVFIRPERYTFGFMEKSDYFTLSFLGEENKSIHKICGSKSGREVDKIKETGLKPMITDKGNVLFEQGRLSLECRKLYTDVLRKENFLDPSVYEQWYTTHGGLHHVYVAEITSAWIKD,not soluble
3,MMKRNILAVIVPALLVAGTANAAEIYNKDGNKVDLYGKAVGLHYFSKGNGENSYGGNGDMTYARLGFKGETQINSDLTGYGQWEYNFQGNNSEGADAQTGNKTRLAFAGLKYADVGSFDYGRNYGVVYDALGYTDMLPEFGGDTAYSDDFFVGRVGGVATYRNSNFFGLVDGLNFAVQYLGKNERDTARRSNGDGVGGSISYEYEGFGIVGAYGAADRTNLQEAQPLGNGKKAEQWATGLKYDANNIYLAANYGETRNATPITNKFTNTSGFANKTQDVLLVAQYQFDFGLRPSIAYTKSKAKDVEGIGDVDLVNYFEVGATYYFNKNMSTYVDYIINQIDSDNKLGVGSDDTVAVGIVYQF,soluble
4,MMMMRAFIAENVRGIYAFDEDGKLVGKRYFTDKPEKILDGLLKGELVKDLEEFLNELREKGYDEFIFEHPELSRKAKELGFNATTEFPNLAGERLRSNPEEFLGENWFDDYYNVGVALTRMRIQEQSGARDKMVIQAIEALDDVDKVINLLVSRLREWYSLHFPELDEILPRHPQYVAFVKAIGHRDNVDEEKLRELGLSDEKIKKIIEAKEKTMGAWMDETDIAIVQHFAEEIDRLYKLRKELEDYIDKAMDDVAPNLKALVGAKLGARLISLAGGLKELAMLPSSTIQVLGAEKALFRHLRTGAKPPKHGVIYQYPAINRSPWWQRGKIARALAGKLAIAARVDYFSGEYIAEELKKELEARIKEIKEKYPRPPKRRKEERKGRKPWKEKKKKKKKKKGGRR,soluble
5,MMNSTNKLSVIIPLYNAGDDFRTCMESLITQTWTALEIIIINDGSTDNSVEIAKYYAENYPHVRLLHQANAGASVARNRGIEVATGKYVAFVDADDEVYPTMYETLMTMALEDDLDVAQCNADWCFRETGETWQSIPTDRLRSTGVLTGPDWLRMGLSSRRWTHVVWMGVYRRDVIVKNNIKFIAGLHHQDIVWTTEFMFNALRARYTEQSLYKYYLHNTSVSRLHRQGNKNLNYQRHYIKITRLLEKLNRNYADKIMIYPEFHQQITYEALRVCHAVRKEPDILTRQRMIAEIFTSGMYKRLITNVRSVKVGYQALLWSFRLWQWRDKTRSHHRITRSAFNLRLEHHHHHH,not soluble
6,MMQRRAVFGLFLLPLARGQGTCAPTPALTQGPYYLRDVPQREDLREGLPGVPLRLLLRVRDRACRPLQGARVDLWHTDALGRYSGVNAPGTFCRGWQATDERGEVAFLTLFPGWYPSRTPHLHLRVEAGGRVFATQLFFPEEVQRQVYALPPYRERGMPRVNNRQDGLFRADLLLRLEREGEAYRGAFVLTLPG,soluble
7,MMRGGMGNMNNMMKQMQKMQKEMAKAQEELGEKTVEGTAGGGMITVIANGHKQILEVKVKEEVVDPEDIEMLQDLVLAATNDALKKADELSNSTMGKFTKGLNLPGGMF,soluble
8,MMTKNAYAFVVIEESVMVFKRTKDEGLMPIFEGFVPLKEGFLKSFKERCNLEFLENLDLLFLYDKPSAHEIFSLCKELKNSIWDRKLVVALVEALEGFKDWNLSLKIEDKRSNSLGNGTKKLLTNADLGSDYKTIVIDSMKTYHQSQQEKYKRERGETLEVRPTTPPSYGGGSIRISGDKKPDFDEENF,not soluble
9,MMTKYGVVGTGYFGAELARFMSKVEGAKITAIYDPVNAAPIAKELNCVATATMEALCSHPDVDCVIIASPNYLHKAPVIAAAKAGKHVFCEKPIALNYQDCKDMVDACKEAGVTFMAGHVMNFFHGVRHAKALIKAGEIGEVTQVHTKRNGFEDVQDEISWKKIRAKSGGHLYHHIHELDCTLFIMDETPSLVSMAAGNVAHKGEKFGDEDDVVLITLEFESGRFATLQWGSSFHYPEHYVLIEGTTGAILIDMQNTAGYLIKAGKKTHFLVHESQAEDDDRRNGNISSEMDGAIAYGKPGKRTPMWLSSIMKLEMQYLHDVINGLEPGEEFAKLLTGEAATNAIATADAATLSSNEGRKVKLTEILG,not soluble
10,MMTQIIHTEKAPAAIGPYVQAVDLGNLVLTSGQIPVNPATGEVPADIVAQARQSLENVKAIIEKAGLTAADIVKTTVFVKDLNDFAAVNAEYERFFKENNHPNFPARSCVEVARLPKDVGLEIEAIAVRK,soluble
11,MMVWTPVNNKMFETFSYLPPLTDEQIAAQVDYIVANGWIPCLEFAEADKAYVSNESAIRFGSVSCLYYDNRYWTMWKLPMFGCRDPMQVLREIVACTKAFPDAYVRLVAFDNQKQVQIMGFLVQRPKTARDFQPANKRSV,soluble
12,MNAACPDCGLKFQCLCSAVPSFHAPFQLSLLTHDNEWQRETNTGRWLVKSMAECQAYTWSRVAANTELQARLTQPNARSFLVYPSEESVELTDALRSLREDEIAHFIVLDATWQEARKMERKSPWLADVPRVHLTTDHVSAYRLRRNQQPGNLCTLEVGLMLLRHFNAEASAEALEQFYHYSMNAFKADKSGHRWIERLEHHHHHH,not soluble
13,MNAPDKTGTDRRAVPAAVDLDALIRAEHRDPFSILGPHDDGKGGQYVRAYLPAALSVRLLARDDGRELAELHMSDVPGFFVGHLEQPQPYLLKINWAGGEQITEDPYSYGPLLG,not soluble
14,MNASSAPQQQQQQQQPQQGQAPQQQQQGPPQHQYQQQRPFHGRVQNHMRGSGPFGNSNGYGRYTAPRGDQQHHDSTPLSSVSSRRVPLPPTSQHRASSNFNTTPSSTNLYIRGLMPNTNDDLLREMCSKYGNIASTKAIMDKATNNCKGYGFVDFESPQAAAAAVDGLNTEGVQAQMAKLQQQEQDPTNLYIANLPLDFTEQMLETELNKFGMVISTRILRTPDNQSRGVGFARMDSKEKCEVIISALNGGRFDTMSKEGPALLIKQADTGRKSKVGSTSRHPSFQQFSSLGGPTAFLNGQHSMNNPEMLQRMQYPQVYQSYYGYHPAAVYQQHYDVNSLASQMGGMHVGGGNPQANGGGDMYGAHMYGQNAGGQGGQGVGQGGQGGNQQFYNPNNGRNKKYFQPMNPQ,not soluble
15,MNDETPRCPYNSLYKPLNLIKSKPDGCFKHNGQCTYGKNLVESVDDGNSRTPYNSIYEPLSLNKPKPDGRSSNGKKPVDNEYVNLPVLSEEQKLADKLAAKLRKLEVKEPKSKKRGSKERKKKKSEPVESTYESLATIEGSTNYSGPVTTESLESNVKFHHASQTAYIGVYSSADAEAQVKNRGEFALYHLFEVGNGIDHLTATLPFGGLWIPNRSQTLLAQSTRSILQIVRIDSDETRGHLL,not soluble
16,MNDISAPEQYDLQTAALKVPPHSIEAEQAVLGGLMLDNNAWERVLDQVSDGDFYRHDHRLIFRAIAKLADQNSPIDVVTLAEQLDKEGQTSQVGGLGYLSELAKNTPSVANIKAYAQIVRARATLRQLIGISTEIADSAFNPEGRTAEEILDEAERQIFQIAEARPKTGGPVSVNDLLTKAIDRIDTLFNSDNAITGLSTGYTDLDEKTSGLQPADLIIVAGRPSMGKTTFAMNLVENAVLRSDKVVLVYSLEMPGESLIMRMLSSLGRIDQTKVRAGRLDDDDWPRLTSAVNLLNDRKLFIDDTAGISPSEMRARTRRIVREHGEIGMIMIDYLQLMQIPGSSGDNRTNEISEISRSLKALAKEFNCPVIALSQLNRSLEQRPNKRPINSDLRESGAIEQDADVIMFVYRDEVYHPETEHKGIAEIIIGKQRNGPIGTTRLAFIGKYTRFENLAPGSYNFDDD,not soluble
17,MNDITASSSVILDSLLIDDSLITCEVCFEVFNHENRPPKLLPCGHNFCESCIFSLCLHQEYYLLDSIKCPTCRREFTTNTARQAPTNYDLCKILENLFRRKEQNVTVIEVPELVHNLPPPMAEVSSSATKIVTSQQQQQQQPAVATKMPRHHVSKKMKALAKRTEESKHFRCADCQRKISQKNLFRVSRYCVDCTSTSRMTIVCLECCVNHHNGHDLLTEDSLHHNQLKTLSDLRKLRHRILDSSDEFDRRADEIRTSGMDVCGGLSAEKHNLLTYTLASIDDVMRRIEMAPILFPPVLRTIRDEQSHNFSRLEKLSAQLEKSLVSRKNTKPTSLTFIENMNDTTYQGLQRSVQNQSLNKSTLSIRQSRVSLRTDDSLFHESISSLTRLMHQHPMCLQLEFHHSTVSSKDTVTQRKQKIMSCAHATTSMLDMDLTQVSMVPIFADVLLNCFYQLNRLSKNKFVGDKKYRRCDIWKQVQCSYTELFGITAKHFPSHHPERVDILDDLAYLCHLYSDVADQGTVTICLIEAARARASDSSGLTEIEQQRSEERLELIDEHLTECRRLQKLLELRKTSKTKKNGGLKRLFGGCFIAQEKANDSLVY,not soluble
18,MNDNTHTLPPRHLSVAPMLDWTDRHYRYLARQITRNTWLYSEMVNAGAIVYGDKDRFLMFNEGEQPVALQLGGSDPSDLAKAAKAAEAYGYNEVNLNCGCPSPRVQKGSFGACLMNEVGLVADCLNAMQDAVKIPVTVKHRIGVDRQTEYQTVADFVGTLRDKTACKTFIVHARNAWLDGLSPKENRDVPPLKYDYVYRLKQEFPGLEIIINGGITTNEAIAGHLQHVDGVMVGREAYHNPMVMREWDRLFYGDTRSPIEYADLVQRLYTYSQAQIQAGRGTILRHIVRHSLGLMHGLKGARTWRRMLSDATLLKDNDGSLILEAWKEVERANMRE,not soluble
19,MNEDAWNKETYSAWVKRFGTPDTAAKKISKDPSKILSVLHEKLGDVKGKKIMNIMGSNGSKAVALALLGADVTVVDFSKGNMDYALDLAKEADVKIDYILSDILKLPEDKLTADYDIVFAEMGIIHYFIDLKPFIKTINRLLKEGGLFVLRDFHPVSTKLITSRGSTAKVRKHKVTGDYFDTSLEEKDAAFSKYLIDNKEPEKVLLRKWTLGEIVTSVAEGGFKIKKLDEEPNLSCDNFDKGIPKSFTLTSEKLSLEHHHHHH,soluble

# — the DeepSol protein solubility set
